How the values were obtained:
[1] = biological target: BPV-1 E1 helicase domain F464A (bovine papillomavirus type 1 (BPV-1)); experiment: SEC
[2] = biological target: BPV-1 E1 helicase domain F464W (bovine papillomavirus type 1 (BPV-1)); experiment: SEC
[3] = biological target: BPV-1 E1 helicase domain H507A (bovine papillomavirus type 1 (BPV-1)); experiment: SEC
[4] = biological target: BPV-1 E1 helicase domain K506A (bovine papillomavirus type 1 (BPV-1)); experiment: SEC
[5] = biological target: BPV-1 E1 helicase domain R505E (bovine papillomavirus type 1 (BPV-1)); experiment: SEC
[6] = biological target: BPV-1 E1 helicase domain W465F (bovine papillomavirus type 1 (BPV-1)); experiment: SEC
[7] = biological target: BPV-1 E1 helicase domain, wild type (bovine papillomavirus type 1 (BPV-1)); experiment: SEC
E1HD wild-type = E1HD wild-type (Bovine papillomavirus 1 (BPV-1), UniProt P03116 299-605); experiment: EMSA

BPV-1 E1 helicase domain F464A (domain or fragment)
stoichiometry N [1]: 6

BPV-1 E1 helicase domain F464W (domain or fragment)
stoichiometry N [2]: 6

BPV-1 E1 helicase domain H507A (domain or fragment)
stoichiometry N [3]: 6

BPV-1 E1 helicase domain K506A (domain or fragment)
stoichiometry N [4]: 6

BPV-1 E1 helicase domain R505E (domain or fragment)
stoichiometry N [5]: 6

BPV-1 E1 helicase domain W465F (domain or fragment)
stoichiometry N [6]: 6

BPV-1 E1 helicase domain, wild type (domain or fragment)
stoichiometry N [7]: 6

B1: 30mer ssDNA (ssDNA)
DNA: TGCTCTAGAATGCAAACTACTCTGAACGAG
binding result (E1HD wild-type): binds

— PMC1474052
